Results reported in patent US20110223176A1 (AbbVie / Abbott, published 2011).
Where two headings read alike, the source gives them in different places.

Columns and labels:
[1] = biological target: T1, human BSG2 (basigin isoform 2) on the cell surface (human, UniProt P35613 140-385); test: receptor binding assay, Eu-labeled antibody on cells expressing human BSG2
T1 construct: Presented on stably transfected BAF3 cells or endogenously on human tumor cell lines (HepG2, MiaPaCa-2, DoHH-2); also called hBSG2; CD147
T1 sequence: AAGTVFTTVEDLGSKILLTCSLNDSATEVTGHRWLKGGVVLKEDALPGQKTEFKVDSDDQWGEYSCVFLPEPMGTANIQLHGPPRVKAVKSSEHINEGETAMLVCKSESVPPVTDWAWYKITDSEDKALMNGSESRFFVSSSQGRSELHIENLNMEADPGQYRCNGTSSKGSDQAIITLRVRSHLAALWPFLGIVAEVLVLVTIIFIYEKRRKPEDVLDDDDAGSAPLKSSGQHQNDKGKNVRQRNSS
Procedure: (§1) Cell lines expressing BSG2 were harvested and washed once in assay buffer (PBS, 0.1% BSA, 0.02% Na Azide, 10 mM EDTA) and resuspended to 5×10⁶ cells per mL. Serial 1:2 dilutions of ⁺³Eu-labeled anti-BSG2 antibody stock in assay buffer were made for final concentrations ranging from 1.6×10⁻⁸-7.7×10⁻¹² M, and a 4 mg/mL solution of unlabeled anti-BSG2 antibody was also prepared. To 96 well round bottom plates, 25 μl of ⁺³Eu-labeled antibody dilutions were added to 25 μl buffer (total counts), or 25 μl of unlabeled antibody were added to 25 μl buffer (background counts). 50 μl of cells at 2.5×10⁵ cells per well were then added to all samples, mixed gently, and incubated on ice for 1 hour. Cell bound antibody was then separated from unbound antibody by transferring 20 μL of the reaction mixture to Acrowell 96 well filter plates (Pall PN 5020), centrifuged for 5 min (2200 rpm), washed 3× with 150 μL cold assay buffer, and centrifuged for 5 min. Signal was determined by incubating samples with 150 μL/well of enhancement buffer and read using Envision. The specific counts were determined by subtracting the background counts (cells+labeled antibody+excess cold antibody) from the corresponding total counts (cells+labeled antibody) for each antibody concentration. The labeled antibody concentration versus total counts was analyzed using Graphpad Prism 4 to calculate Kd and Bmax values.

[2] = biological target: T1, human BSG2 (basigin isoform 2) on the …; test: flow cytometry (FACS) on BAF3 cells expressing human BSG2
Procedure: (§2) Stable cell lines overexpressing cell-surface BSG2 or human tumor cell lines were harvested from tissue culture flasks, washed three times and resuspended in phosphate buffered saline (PBS) containing 1% bovine serum albumin and 1 mM CaCl₂ (FACS buffer). 5×10⁵ cells were incubated with antibodies at various concentrations in FACS buffer for 60 minutes on ice. Cells were washed twice and the bound murine monoclonal antibody was detected with a goat Fab′2 anti-mouse IgM+IgG+IgA (H+L) R-phycoerythrin-conjugated antibody (Southern Biotechnology Associates, Inc., Birmingham, Ala., Catalog No. 1012-08) diluted 1:500. Following incubation on ice (4° C., 60 minutes), cells were washed three times and resuspended in FACS buffer. Fluorescence was measured using a Becton Dickinson FACSCalibur-HTS (Becton Dickinson, San Jose, Calif., US). Data were analyzed using Graphpad Prism software and EC₅₀ values were reported as the concentration of antibody to achieve 50% of maximal BSG2 antibodies binding to BSG2 expressing cells.

[3] = biological target: T2, cynomolgus monkey BSG2 on the cell surface (cynomolgus monkey); test: flow cytometry (FACS) on BAF3 cells expressing cynomolgus BSG2
T2 construct: whole, on cells; also called BAF3-cyno BSG2; Cyno BSG2
Procedure: as §2

[4] = biological target: T1, human BSG2 (basigin isoform 2) on the …; test: receptor binding assay, Eu-labeled antibody on cells expressing human BSG2; remark: listed apart in the source
Procedure: as §1
BSG2 antibody binding activities against whole cells expressing human or cynomolgus monkey BSG2 were assessed by ECL using MSD technology (described in Example 1.3) and the receptor binding assay (described in Example 1.4) and are shown in Table 11.

[5] = biological target: T1, human BSG2 (basigin isoform 2) on the …; test: cell-based or functional assay
[6] = biological target: T1, human BSG2 (basigin isoform 2) on the …; test: cell-based or functional assay; remark: listed apart in the source
[7] = biological target: T1, human BSG2 (basigin isoform 2) on the …; test: cell-based ECL (MSD) binding on whole cells expressing human BSG2
[8] = biological target: T1, human BSG2 (basigin isoform 2) on the …; test: flow cytometry (FACS) on HepG2 hepatocellular carcinoma cells (cell-surface BSG2); HepG2 hepatocellular carcinoma cells (endogenous BSG2), not BAF3 transfectants
Procedure: as §2

B1: mouse anti-human BSG2 monoclonal antibody ML64-6A11-3A3 (antibody, mouse IgG2a, V domains shown)
VH: EVKLEESGGGLVQPGGSMKLSCVASGFTFSNFWMDWVRQSPEKGLEWIAGIRLKSYNYATHYAESVKGRFTISRDDSKSSVYLQMNNLRAEDTGIYYCTDWDGAYWGQGTLVTVSA
VL: DIVMTQSHKFMSTSVGDRVSITCKASQDVSTDVAWYQQKPGQSPKLLIYSASYRYTGVPDRFTGSGSGTDFTFTISSVQAEDLAVYYCQQHYSTPFTFGSGTKLEIK
notes: Hybridoma antibody, mouse IgG2a/kappa; also called 6A11-3A3 parental mouse antibody; Ab 3A3
Kd [1]: 2 nM | EC50 [2]: 0.41 nM | EC50 [3]: 0.35 nM | Kd [4]: 2 nM | Mitochondrial membrane potential, fold decrease against Neg control IgG2a, MiaPaCa cells [5]: 2.5 fold decrease | ph-Akt, fold decrease against Neg control IgG2a, MiaPaCa cells [5]: 2 fold decrease | CDC assay (% killing at 10 µg/ml Ab), MiaPaCa-2 pancreatic cancer cells [6]: 84 % killing | EC50 [7]: 0.6 nM | EC50 [8]: 0.32 nM
